# Experimental data from US20250250357A1 (NANJING ZAIMING PHARMACEUTICAL, published 2025).
# Columns and labels:
# [1] = target: T1, human MSLN-FL-his protein (human, UniProt Q13421 296-580); assay: ELISA on coated antigen, antibody 1 nM
# T1 construct: Made in HEK293E cells, purified on nickel column; it is put last here; also called human MSLN full-length protein; hMSLN-FL-his; not shown: His tag
# [2] = target: T1, human MSLN-FL-his protein; assay: ELISA on coated antigen, antibody 10 nM
# Description: (§1) The plate was sealed with a plastic film and incubated at 4° C. overnight. The next day, the plate was washed twice with PBST, and a blocking buffer [PBS+2% (w/w) BSA] was added for blocking at room temperature for 2 h. The blocking buffer was discarded, and a chimeric antibody or negative control antibody serially diluted from 100 nM was added at 50 μL/well. After incubation at 37° C. for 2 h, the plate was washed 3 times with PBST. […] After incubation at 37° C. for 2 h, the plate was washed 5 times with PBST. A TMB substrate was added at 50 μL/well for incubation at room temperature for 5-10 min, and then a stop solution (1.0 N HCl) was added at 50 μL/well.
# [3] = target: T1, human MSLN-FL-his protein; assay: ELISA on coated antigen, antibody 0.1 nM
# Description: as §1
# [4] = target: T1, human MSLN-FL-his protein; assay: ELISA on coated antigen, antibody 100 nM
# Description: as §1
# [5] = target: T1, human MSLN-FL-his protein; assay: ELISA on coated antigen, antibody 0.01 nM
# Description: as §1
# [6] = target: T1, human MSLN-FL-his protein; assay: ELISA on coated antigen, antibody 0.001 nM
# Description: as §1
# [7] = target: T1, human MSLN-FL-his protein; assay: ELISA on coated antigen, antibody 0.0001 nM
# Description: as §1
# [8] = target: T1, human MSLN-FL-his protein; assay: ELISA on coated antigen, no antibody (blank, column 'none')
# Description: as §1
# T1 sequence (Q13421 other isoform, or with tags, fused parts or gaps): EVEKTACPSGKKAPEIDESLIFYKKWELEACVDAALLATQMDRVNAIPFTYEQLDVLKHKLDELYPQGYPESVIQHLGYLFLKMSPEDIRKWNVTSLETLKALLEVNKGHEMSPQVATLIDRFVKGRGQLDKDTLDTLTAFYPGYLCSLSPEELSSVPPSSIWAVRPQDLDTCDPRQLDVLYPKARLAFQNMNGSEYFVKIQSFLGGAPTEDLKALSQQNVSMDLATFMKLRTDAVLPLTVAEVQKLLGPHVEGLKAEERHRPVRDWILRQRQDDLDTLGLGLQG
OD450 [1],OD450 [2],OD450 [3],OD450 [4],OD450 [5],OD450 [6],OD450 [7],OD450 [8],Binder
2.42 OD,2.53 OD,2.22 OD,2.94 OD,1.26 OD,0.49 OD,0.32 OD,0.05 OD,"S009-F8-12.13 (antibody, human IgG1, kappa, V domains shown, Human-murine chimeric antibody, human IgG1 heavy and kappa light constant regions) VH: QVQLQQPGAELVKPGASVKLSCKASGYTFTSYWMHWVKQRPGQGLEWIGMIHPNSGSTNYNEKFKSKATLTVDKSSSTAYMQLSSLTSEDSAVYYCARRTPIITLVGHWYFDVWGTGTTVTVSS VL: DIVMTQSHKFMSTSVGDRVSITCKASQDVGTAVAWYQQKPGQSPKLLIYWASTRHTGVPDRFTGSGSGTDFTLTISNVQSEDLADYFCQQYSSYPLTFGAGTKLELKR"
2.23 OD,2.47 OD,1.11 OD,2.64 OD,0.24 OD,0.08 OD,0.05 OD,0.05 OD,"S009-F8-15.19 (antibody, human IgG1, kappa, V domains shown, Human-murine chimeric antibody, human IgG1 heavy and kappa light constant regions) VH: EFQLQQSGPELVKPGASVKISCKASGYSFTDYNMNWVKQSNGKSLEWIGIINPYYGTTSNNQNFKGKATLTVDQSSSTAYMQLNSLTSDDSAVYYCARWLRRDAMDYWGQGTSVTVSS VL: DIVMTPSHKFMSTSVGDRVSIACKASQDVGSSVAWYQQKPGQSPKLLIYWTSTRHTGVPDRFTGSGSGTDFTLTISNVQSEDLADYFCQQYSSYPWTFGGGTKLEIKR"
2.49 OD,2.88 OD,1.71 OD,2.9 OD,0.92 OD,0.44 OD,0.29 OD,0.04 OD,"S009-F8-22.23 (antibody, human IgG1, kappa, V domains shown, Human-murine chimeric antibody, human IgG1 heavy and kappa light constant regions) VH: QVQLKQSGPGLVQPSQSLSITCTVSGFSLFSYGVHWVRQSPGKGLEWLGVIWSGGSTDYNAAFISRLSISKDNSKSQVFFKMNSLQADDTAMYYCARNGGSMITTLYYAMDYWGQGTSVTVSS VL: DVVMTQTPLSLPVSLGDQASISCRSSQSLVHSYGNTYLHWYLQKPGQSPKLLIYKVSNRFSGVPDRFSGSGSGTDFTLKISRVEAEDLGVYFCSQSTHIPFTFGGGTKLEIKR"
2.29 OD,2.39 OD,1.93 OD,2.42 OD,0.71 OD,0.15 OD,0.06 OD,0.05 OD,"S009-F8-18.9 (antibody, human IgG1, kappa, V domains shown, Human-murine chimeric antibody, human IgG1 heavy and kappa light constant regions) VH: EFQLQQSGPELVKPGASVKISCKASGYSFTDYNMNWVKQSNGKSLEWIGIINPNYGTTSYNQKFKGRATLTVDQSSSTAYVQLNSLTSEDSAVYYCARGGYDNEAMDYWGQGTSVTVSS VL: QIVLTQSPAIMSASPGEKVTMTCSASSSVSYMHWYQQKSGTSPKRWIYDTSKLASGVPARFSGSGSGTSYSLTISSMEAEDAATYYCQQWSSNPPTFGAGTKLELKR"
2.05 OD,2.32 OD,1.61 OD,2.37 OD,0.4 OD,0.1 OD,0.06 OD,0.06 OD,"S009-F8-19.21 (antibody, human IgG1, kappa, V domains shown, Human-murine chimeric antibody, human IgG1 heavy and kappa light constant regions) VH: EFQLQQSGPELVKPGASVKISCKTSGYSFTDYNMNWVKQSNGKSLEWIGVINPNYGTTGYNQKFKGKATLTVDQSSSTAYMQLNSLTSEDSAVYYCARGGYDGEAMDYWGHGTSVTVSS VL: QIVLTQSPAIMSASPGEKVTMTCSASSSVNYMHWYQQKSGTSPKRWIYDTSKLASGVPARFSGSGSGTSYSLTISSMEAEDAATYYCQQWSSYPPTFGGGTKLEIKR"
2.55 OD,2.73 OD,1.88 OD,3.22 OD,0.49 OD,0.12 OD,0.06 OD,0.05 OD,"S009-F8-7.5 (antibody, human IgG1, kappa, V domains shown, Human-murine chimeric antibody, human IgG1 heavy and kappa light constant regions) VH: DVQLQESGPGLVKPSQSLSLTCSVTGYSITSGYYWNWIRQFPGNKLEWMAYIRYDGSNNYNPSLKNRISIIRDTSKNQFFLRLNSVTTEDTATYYCAKSYYGMDDWGQGISVTVSS VL: DIQMTQSPASLSASVGETVTITCRTSGDIHNYLAWYQQKQGKSPQLLVYKAKTLENGVPSRFTGSGSGTQFSLKIDSLQPEDFGTYYCQHFWTTPYTFGGGTKLEIKR"
2.8 OD,2.79 OD,1.31 OD,2.94 OD,0.18 OD,0.1 OD,0.07 OD,0.06 OD,"S009-F8-4.5 (antibody, human IgG1, kappa, V domains shown, Human-murine chimeric antibody, human IgG1 heavy and kappa light constant regions) VH: QVQLQQPGAELVKPGASVKLSCKASGYTFTIYWMHWVKQRPGQGLEWIGMIHPNSGNTNYNEKFKSKATLTVDKSSSTAYMQLSSLTSEDSAVYYCSLIHWYFDVWGTGTTVTVSS VL: QIVLTQSPAIMSASPGEKVTMTCSASSSVSYMYWYQQKPGSSPRLLIYDTSNLASGVPVRFSGSGSGTSYSLTISRMEAEDAATYYCQQWSSYPLTFGAGTKLELKR"
2.05 OD,2.34 OD,1.18 OD,2.69 OD,0.24 OD,0.07 OD,0.05 OD,0.05 OD,"S009-F8-13.8 (antibody, human IgG1, kappa, V domains shown, Human-murine chimeric antibody, human IgG1 heavy and kappa light constant regions) VH: EFQLQQSGPELVKPGASVKISCKASGYSFTDYNMNWVKQTNGKSLEWIGIINPNYGTSSYNQKFKGKATLTVDQSSSTAYMQLNSLTSEDSAVYYCARVGRDNSGFDYWGQGTTLTVSS VL: QIVLTQSPAIMSASPGEKVTMTCSASSSVSYMYWYQQKPGSSPRLLIYDTSNLASGVPVRFSGSGSGTSYSLTISRMEAEDAATYYCQQWSSYPPTFGSGTELEIKR"
2.51 OD,2.75 OD,1.53 OD,3.16 OD,0.34 OD,0.08 OD,0.05 OD,0.05 OD,"S009-F8-5.15 (antibody, human IgG1, kappa, V domains shown, Human-murine chimeric antibody, human IgG1 heavy and kappa light constant regions) VH: QVQLQQPGTELVKPGASVKLSCKASGYTFTSYWMHWVKQRPGQGLEWIGHSNPSNGGTNYNEKFKSKATLTVDKSSSTAYMQLSSLTSEDSAVYYCARWVRGSNYEYFDVWGTGTTVTVSS VL: DIVMTQSQKFMSTTVGDRVSIICKASQNVGSAVAWCQQKPGQSPKLLIYSASNRYTGVPDRFTGSGSGTDFTLTISNMQSEDLADYFCQQYSSYPLTFAGGTKLEIKR"
2.75 OD,3.15 OD,1.97 OD,3.15 OD,0.91 OD,0.23 OD,0.1 OD,0.05 OD,"S009-F8-8.22 (antibody, human IgG1, kappa, V domains shown, Human-murine chimeric antibody, human IgG1 heavy and kappa light constant regions) VH: EVQLQQSGPELVKPGASVKMSCKASGYTFTDYIIHWVKQSHGKSLEWIAYIFPNNGGTGYNQKFRGKATLTVNKSSSTAYMELRSLTSEDSAVYYCARWRLRQYFDVWGTGTTVTVSS VL: DIVMTQSQKFMSTIVGDRVSITCKASQNVGTAVAWYQQKPGQSPKLLIYSASNRYTGVPDRFTGSGSGTDFTLTISNMQSEDLADYFCQQYSSYPLTFGGGTKLEIKR"
2.77 OD,2.98 OD,2.02 OD,2.91 OD,0.75 OD,0.18 OD,0.1 OD,0.06 OD,"S009-F8-24.14 (antibody, human IgG1, kappa, V domains shown, Human-murine chimeric antibody, human IgG1 heavy and kappa light constant regions) VH: EFQLQQSGPELVKPGASVKISCKASGYSFTDYNMNWVKLSNGKSLEWIGVIIPNYGTSSYNQKFKGKATLTVDQSSSTAYMQLNSLTSEDSAVYYCARWDNYYGSSLDYWGQGTTLTVSS VL: DIVMTQSQKFMSTTVGDRVSITCKASQNVGTAVAWYQQKPGQSPKLLIYSASNRYTGVPDRFTGSGSGTDFILTISNMQSEDLADYFCQQYSSYPLTFGAGTKLELKR"
